This test addresses fluorescein-labeled UBE2D2 (WT) (human), P62837. Put plainly: fluorescence polarisation. Particulars: remark: other sources report otherwise.

fluorescein-labeled UBE2D2 (WT) (human), P62837, sequence (P62837 whole entry): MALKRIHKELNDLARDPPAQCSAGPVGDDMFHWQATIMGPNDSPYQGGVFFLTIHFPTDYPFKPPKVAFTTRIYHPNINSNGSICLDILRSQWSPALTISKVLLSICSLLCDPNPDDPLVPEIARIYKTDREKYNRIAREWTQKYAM

B1: IpaH1.4 C-terminal domain, residues 265-575, A0A0H2USG1 265-575 (domain or fragment)
chain: GPQIFFSMGNSATISAPEHSLADAVTAWFPENKQSDVSQIWHAFEHEEHANTFSAFLDRLSDTVSARNTSGFREQVAAWLEKLSASAELRQQSFAVAADATESCEDRVALTWNNLRKTLLVHQASEGLFDNDTGALLSLGREMFRLEILEDIARDKVRTLHFVDEIEVYLAFQTMLAEKLQLSTAVKEMRFYGVSGVTANDLRTAEAMVRSREENEFTDWFSLWGPWHAVLKRTEADRWAQAEEQKYEMLENEYSQRVADRLKASGLSGDADAEREAGAQVMRETEQQIYRQLTDEVLALRLSENGSNHIA
As to B1, the dissociation constant Kd was determined as 317 µM.
